Measured values from the nanobody polyreactivity screen of Harvey et al. (2022).

Test: yeast display, Sf9 membrane polyspecificity reagent, FACS + sequencing; frameworks hold sequencing errors
In short: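 Using colony PCR, genes from sorted yeast display clones were amplified, then sequenced on MiSeq at 2 × 250 and filtered by CDR length. The clones had been stained with 10% biotinylated, detergent-solubilized Sf9 membrane reagent for 1 hour at 4 °C and sorted by FACS into low and high (top ~1%) gates on anti-HA and streptavidin fluorescence. Polyreactivity labels come from the gate of origin.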
With “QVQLVESGGALVQAGGSIRLSCAASGSTFAYYAMGWYRQATGKERELVAAINWRTYYADSVKGRFTISRDNAKNTVYLQMNSLKPEDSAVYYCAAGYYRNKFYYWGQGTQVTVSS” the “polyreactivity (PSR sort gate)” value was “high polyreactivity”.
In the case of “QVQLVESGGGLVQAGGSLRLTCAASGRTFSVNAMGWYRQAPGKERELVASINWSGGSTYYADSVKGRFTISRDNAKNTVYLQMNSLKPEDTAVYYCAADHSYWDWWSYYYWGQGTQVTVSS”, the “polyreactivity (PSR sort gate)” value is reported as “low polyreactivity”.
For “QVQLVESGGGLVQAGGSLRLICAASGFIFDPYAMGSYRQATGKVRELVAAISSGGSTYYADSVKGRFTISRDNAKNTVYLQMNSLKPEDNAVYYCAKVYVRYDSSTQTYLNTYGYWGQGTQVTVSS”, the “polyreactivity (PSR sort gate)” value was “high polyreactivity”.
For “QVQLVESGGGLVQAGGSLRLSCAASGFIFKGYAKGWYRQAPGKERELVAAINTSGGSTYYAVSVKGRFTISRDNAKNTVYVQMNSLKPEDTAVYYCNVRNRSRPYLPFWPDDNWGQGTQVTVSS”, the “polyreactivity (PSR sort gate)” value was “high polyreactivity”.
In the case of “QVQLVESGGGLVQAGGSLRLSCAASGSNFKLYSMGWYRQAPGKERELVATIRWSGGSTYYADSVKGRFTISRDNAKNTVYLQMNSLKPEDTAVYYCAARRVRPNGYTSSPLDYWGQGTQVTVSS”, the “polyreactivity (PSR sort gate)” value is reported as “high polyreactivity”.
For “QVQLVDSGGGLVQAGGSLRLSCAASGRTFQRNAMGWYRQAPGTERELVATITTNGGSTYYADSVKGRFTISRDNAKNTVYLQMNSLKPEDTAVYYCAAPFNPRVRTLRSVRMDYWGQGTQVTVSS”, the “polyreactivity (PSR sort gate)” value was “low polyreactivity”.
For “QVQLVESGGGLVQAGGSLRLSCAASGLTFGDYAMGWYRQAPGKEWELVAVITSSGSTYYADSVKGRFTISRDNAKNTVYLQMNSLKPEDTAVYYCATSAPAYRWRERYYYWGQGTQVTVSS”, the “polyreactivity (PSR sort gate)” value was “high polyreactivity”.
With “QVQLVESGGGLVQAGGSLRLSCAASGFIFVFNTMGWYRQAPGKERELVAAISVSGDSTYADSVKGRFTISRDNAKNTVYLQMNSLKPEDTAVYYCNAGSTELGWTWELDYWGQGTQVNVSS” the “polyreactivity (PSR sort gate)” value was “high polyreactivity”.
In the case of “QVQLVESGGGLVQAGGSLRLSCAASGRTLTRYTMGWYRQAPGKERELVATISRSGGNTHYADSLKGRFTISRDNAKNTVYFQMNSLKPEDTAVFYCNAVRYAIYGYDYWGQGTQVTVSS”, the “polyreactivity (PSR sort gate)” value is reported as “high polyreactivity”.
For “QVQLVESGGGLVQAGGSLRLSCAASGITFGRNTMGWYRQAPGKERELVASISYSGTTTYYADSVKGRFTISRDNAKNTVYLQMNSLKPEDTAVYYCNKRWRYYDMDYWGQGTQVTVSS”, the “polyreactivity (PSR sort gate)” value was “low polyreactivity”.
In the case of “QVQLVESGGGLVQAGGSLRLSCAASGLIFRYYDMGWYRQAPGKERELVAAISSSGTRTYYADSVKGRFTISRENPKNTVYLQMNSLKPEDTSVYYCATENQNPTGGYWGQGTQVTVSS”, the “polyreactivity (PSR sort gate)” value is reported as “high polyreactivity”.
In the case of “QVQLVESGGGLVQAGGSLRLSCAASGSTFYKYAMGWYRQAPGKERELVASISRSGGSTSYADSVKGRFTISRDNAKNTVYLQMNSLKPEDTEVYYCAATWRQHPGSMGYWGQGTQVTVSS”, the “polyreactivity (PSR sort gate)” value is reported as “high polyreactivity”.
With “QVQLVESGGGLVQAGGSLRLSCAASGYTFDGYAMGWYRQAPGKERELVAAINSGGGTYYADSVKGRFTISRDNAKNTVYLQMNSLKPEDTAVYYCAKYTYDYWGQGTQVTVSS” the “polyreactivity (PSR sort gate)” value was “low polyreactivity”.
For “QVQLVESGGGLVQAGGSLRLSCAASGGTFLGYAMGWYRQAPGKDRELVAAIAASGGNTYYADSVKGRFTISRDNAKNTVYLQMNSLKPEATAVYYGAARQYRSVLKYDYWGQGTQVTVSS”, the “polyreactivity (PSR sort gate)” value was “high polyreactivity”.
For “QVHLVESGGGLVQAAGSLRLSCAASGSTFKYNAMGWYRQAPGKERELVAAITRGGRTYYADSVKGRFTISRDNAKNTVYLQMNSLKPEDTEVYYCAAAIPSGTFYAGAYYYWGQGTQVTVSS”, the “polyreactivity (PSR sort gate)” value was “high polyreactivity”.
In the case of “QVQLVESGGGIVQAGGSLRLSCAASGSSFQTNAMGWYRLAPGKERELVATINRSGDSTYYADSVKGRFTISRDNAKNTVYLQMNSLKPEDTAVYYCNKDWHSQDFSAYNSYDYWGQGTQVTVSS”, the “polyreactivity (PSR sort gate)” value is reported as “low polyreactivity”.
With “QVQLVESGGGLVQAGGSLRLSCAASGSISTPYTMGWYRQAPGKERELVADISWIGDTTSYADSVKGRFTISRDNAKNTVYLLMNSLKPEDTAVYYCNAEHRGYEYWGQGTQVTVSS” the “polyreactivity (PSR sort gate)” value was “low polyreactivity”.
In the case of “QVQLVESGGGLVQAGGSLRLSCAPSGFTFGYYAMGWYRQAPGKEMELVAAISSSGGSTYYADSVKGRFTISRDNAKKTVYLQMNSLKREVTAVYYCAVVVFSRVYRYFTSDYWGQGTQVTVSS”, the “polyreactivity (PSR sort gate)” value is reported as “high polyreactivity”.
With “QVQLVESGGGIVQAGGSLRLSCAASGITFDLYAMGWSRQAPGKERELVAASTYYADSVKWRFTISRDYAKNTVYLQMNSLKPEDTAVYYCITREPVTSDYWGLGTQVTVSS” the “polyreactivity (PSR sort gate)” value was “high polyreactivity”.
For “QVQLVESGGCLVQAGGSLRLSSAASGFIFYYNAMGWYRQEPGKESELVATIRGSGGSTYYADSVKGRFTISRDNAKNTVYLQMNSLKPEDTAVYYCAASVQYRRLKKFYYWGQGTQVTVSS”, the “polyreactivity (PSR sort gate)” value was “high polyreactivity”.
With “QVQLVESGGGLVQAGGSLRLSCAASGFPFPDYAMGWYRQAPGKERELVAGISSTGDSTYYADSVKGRFTISRDNAKNTVYLQMNSLKPEDTAVYYCNAAQERPIIILFSKYDYWGQGTQVTVSS” the “polyreactivity (PSR sort gate)” value was “low polyreactivity”.
For “QVQLVESVGVLDQAGGSLRLSCAASGFTFVRYAMGWYRQAPGKERELVAAISGSGGRTYYADSVKGRFTISRDTAKNTVYLQLNSLKPEDTAVYYCAAVYLVTRGARYEYWGQGTQVTVSS”, the “polyreactivity (PSR sort gate)” value was “high polyreactivity”.
In the case of “QVQLVESGGGLVQAGGSLRLSCAASGFTFISYAMGWYRQAPGKERELVAVINQRGGRTYYADSVKGRFTISRDNAKNTVYLQMNSLKPEDTAVYYCATRLKSVSGGYNYWGQGTQVTVSS”, the “polyreactivity (PSR sort gate)” value is reported as “high polyreactivity”.
For “QVQLVESGGGLVQAGGSLRLSCAASGRTFTPYAMGWYRQAPGKERELVAAITSNSGITSYADSVKGRFTISRDNAKNTVYLQMNSLKPEDTAVYYCNADYYRYFRYYYWGQGTQVTVSS”, the “polyreactivity (PSR sort gate)” value was “high polyreactivity”.
For “QVQLVESGGGLVQAGGSLRLICAASGSISYEYAMGWYRQAPGKERELVASIDSDGAGTYYADSVKGRFTISLDNAKNTVYLQMNSLKPEDTAVYYCNSEWYYPYYYSRMDYWGQGTQVTVSS”, the “polyreactivity (PSR sort gate)” value was “low polyreactivity”.
For “QVQLVESGAGLVQAGGSLRLSCAASGFIFAGYAMGLYRQAPGKERELFAAISSRGGSTYYADSVKGRFTISRDNAKNPVDLQMNSLKPEDTAVYYCNKYYYGFTPVGYKKMDYWGQGTQVIVSS”, the “polyreactivity (PSR sort gate)” value was “low polyreactivity”.
In the case of “QVQLGESGGGLVQAGGSLRLSCAPSGNNFVGNAMGWCRQAAGKERELVAAIRRSGGTTYYADSVKGRFTISRDNAKNTVYLQMNSLKPEDTAVYYCAASRPYQGDYWGQGTQVTVSS”, the “polyreactivity (PSR sort gate)” value is reported as “low polyreactivity”.
With “QVQLVESGGGLVQAGGSLRLSCAASGLTFTGYAMGWYRQAPGKERELVASISSRGGSTYYADSVKGRFTISRDNAKITVYLQMNSLKPEDTAVYYCNAVYRGYYSGELDYWGQGTQVTVSS” the “polyreactivity (PSR sort gate)” value was “high polyreactivity”.
In the case of “QVQLVESGGCLVQAGGSLRLSCSASGRTFNWKAMGWYRPAPGKERELVAVITSSGTRTYYADSVKGRFTISRDNAKNTVSLQMNSLKPEDTAVYYCANGETYTGPNSRYGQWKKVYYWGQGTQVTVSS”, the “polyreactivity (PSR sort gate)” value is reported as “low polyreactivity”.
With “QVQLVESGGGLVQAGGSLRLSCAASGSIFFWNDMGWYRQAPGKERELVAAISWSGGSTSYADSVKGRFTISRDNAKNTVYLQMNSLKPEDTAVYYCAAEYTYGSPYDYWGQGTQVTVSS” the “polyreactivity (PSR sort gate)” value was “low polyreactivity”.
